Measured values: patent publication US20090324538A1

Tests used:
[1] = molecular target: heterotrimeric IL-15R (αβγc chains) on CTLL-2 cells (UniProt Q60819); assay: cell-based or functional assay
[2] = molecular target: IL-15Rβγc receptors on 32Dβ cells; assay: cell-based or functional assay

Chain of UniProt Q60819 (Q60819 33-263, chain 1 of 3): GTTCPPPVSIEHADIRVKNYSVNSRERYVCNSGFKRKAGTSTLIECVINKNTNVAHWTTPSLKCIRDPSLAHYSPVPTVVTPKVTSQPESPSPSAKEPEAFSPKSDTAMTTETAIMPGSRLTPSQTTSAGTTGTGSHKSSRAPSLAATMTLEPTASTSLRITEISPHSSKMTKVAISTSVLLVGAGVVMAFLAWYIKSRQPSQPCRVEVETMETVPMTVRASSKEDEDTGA
Chain of UniProt Q60819 (P16297 27-539, chain 2 of 3, further chain): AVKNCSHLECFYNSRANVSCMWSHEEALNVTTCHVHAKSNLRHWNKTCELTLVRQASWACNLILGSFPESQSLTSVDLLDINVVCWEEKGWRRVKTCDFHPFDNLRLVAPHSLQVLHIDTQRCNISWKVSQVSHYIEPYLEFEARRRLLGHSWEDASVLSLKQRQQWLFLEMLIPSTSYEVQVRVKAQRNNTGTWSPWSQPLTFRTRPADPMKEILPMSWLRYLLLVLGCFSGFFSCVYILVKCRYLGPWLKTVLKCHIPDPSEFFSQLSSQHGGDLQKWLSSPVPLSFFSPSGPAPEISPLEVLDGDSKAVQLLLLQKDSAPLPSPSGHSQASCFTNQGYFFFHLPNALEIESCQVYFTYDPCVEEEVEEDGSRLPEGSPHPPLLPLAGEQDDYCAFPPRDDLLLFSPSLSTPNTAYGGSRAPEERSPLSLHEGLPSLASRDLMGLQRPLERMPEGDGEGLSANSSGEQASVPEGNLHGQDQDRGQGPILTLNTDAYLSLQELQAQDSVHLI
Chain of UniProt Q60819 (P34902 23-369, chain 3 of 3, further chain): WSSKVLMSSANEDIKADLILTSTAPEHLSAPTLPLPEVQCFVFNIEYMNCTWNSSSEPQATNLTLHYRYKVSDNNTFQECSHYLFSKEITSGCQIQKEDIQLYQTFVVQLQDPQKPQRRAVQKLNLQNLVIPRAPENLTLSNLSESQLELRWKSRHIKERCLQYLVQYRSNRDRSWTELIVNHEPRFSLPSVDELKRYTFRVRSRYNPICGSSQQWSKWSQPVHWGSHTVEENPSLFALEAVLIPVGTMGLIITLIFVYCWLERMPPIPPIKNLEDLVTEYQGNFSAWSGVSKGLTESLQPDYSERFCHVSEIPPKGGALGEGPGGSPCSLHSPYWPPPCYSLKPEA

| inhibition of c264scTCR/huIL15 stimulatory activity on CTLL-2 proliferation after complex formation [1] | proliferation of 32Dβ cells (WST-1), lowest concentration with biological activity [2] | Substance |
| --- | --- | --- |
| 4 fold | – | c264scTCR/huIL15+c264scTCR/huIL15RαΔE3 fusion protein complex (from UniProt Q13261 31-205) |
| – | 80 pM | c264scTCR/huIL15N72D fusion protein (from UniProt P01857 99-113) |
